{"source": "patent US20240398899A1", "about": "(priority 2021, published 2024)", "molecules": {"B1": {"name": "SEQ ID NO: 1: variant of the S. rolfsii lectin amino acid sequence (reported as Rec-2 in WO2010/095143) (protein)", "chain": "TYKITVRVYQTNPDAFFHPVEKTVWKYANGGTWTITDDQHVLTMGGSGTSGTLRFHADNGESFTATFGVHNYKRWCDIVTNLAADETGMVINQQYYSQKNREEARERQLSNYQVKNAKGRNFQIVYTEAEGNDLHANLIIG"}}, "key": {"SH-SY5Y neuronal cells": {"system": "SH-SY5Y neuronal cells", "test": "Sub (G0/G1) cell population by PI cell cycle assay against MPP+ iodide damage", "type": "cell-based, human", "details": "MPP + Iodide (2 mM); for % Decrease in Apoptotic cells (wrt MPP + iodide): SubG0/G1", "method": "After incubation as in Example 2a and 2b, cells were harvested by trypsinization and processed for Cell cycle assay as follows: Cell cycle reagent contains PI stain, which stains DNA of cells in different phases of cell cycle; Sub (G0/G1), G1, S, G2 and M. Cells in Sub (G0/G1) phase correspond to apoptotic cells.\nCells were gently harvested into pre-labelled centrifuge tubes and centrifuged at 450 g for 5 min, RT (low brake). The supernatants were removed carefully and discarded. 1 ml of 1×PBS was added to the pellet and resuspended gently to make homogenous suspension. Cells were centrifuged at 450 g for 5 min, RT (low brake). The supernatant was carefully removed leaving behind approximately 100 μl of PBS. Cells were resuspended gently yet thoroughly in residual PBS. The cells were fixed by adding Ice-cold 70% ethanol (100 μl) added dropwise into cells in each tube while vortexing at low speed Cells were stored at 4° C. for 24 h prior to staining.\nEthanol fixed cells were centrifuged at 450 g for 5 min, RT (low brake) the supernatant was carefully removed (not to touch the pellet) and discarded. 1 ml of 1×PBS was added into pellet and resuspended gently. Cells were incubated for 1 minute at RT. Cells were centrifuged at 450 g for 5 min, RT (low brake). (washing step) The supernatant was removed carefully leaving behind approx. 20 μl-50 μl of PBS. 200 μl of Cell Cycle reagent was added into each tube. Cells were resuspended gently and mixed. Cells were incubated for 30 min, RT, Dark. The stained samples were transferred into 96-well plates and acquired on flow cytometer (Guava technologies). Percentage of cells in Sub (G0/G1) phase were determined.\nPercent inhibition in apoptotic cells=[(% Sub(G0/G1)cells in MPP+iodide alone) −(% Sub(G0/G1)cells in SEQ ID NO:1+MPP+iodide)/% Sub(G0/G1)cells in MPP+iodide alone]*100"}, "MPO": {"system": "MPO", "test": "Alzheimer's biomarker multiplex analysis, scopolamine-damaged SH-SY5Y", "type": "cell-based, human", "details": "Scopolamine (4 mM)", "method": "(§1) After overnight incubation as in the previous examples, cells were treated with recombinant lectin protein having SEQ ID NO: 1 at different concentrations ranging from 0.001 μg/ml-1 μg/ml for 24 h for Parkinson disease and 0.01 μg/ml-25 μg/ml for 24 h for Alzheimer's disease. • Parkinson Disease: After 24 h of pre-treatment with recombinant lectin protein having SEQ ID NO: 1, cells were exposed (MPP+) for another 24 h. Cells treated with MPP+Iodide were included as Control. […] The cells treated with Galantamine were included as positive Control.\n(§2) The levels of markers were determined by multiplex analysis as: Cell culture supernatants were diluted (1:2) with Calibrator Diluent. 50 μl of standard or sample was added per well. 50 μl of the microparticle cocktail was added to each well of the microplate and covered with a foil plate sealer. The plate was incubated for 2 hours at room temperature on a horizontal orbital microplate shaker. The plate was washed using a magnetic device designed to accommodate a microplate. Washing was done by applying the magnet to the bottom of the microplate, allowing 1 minute before removing the liquid, filling each well with wash buffer (100 μl) and allowing 1 minute before removing the liquid again. 50 μl of diluted Biotin-Antibody Cocktail was added to each well. Covered the plate with a foil plate sealer and incubated for 1 hour at room temperature on the shaker. Repeated the wash step. 50 μl of diluted Streptavidin-PE was added to each well. The plate was securely covered with a foil plate sealer and incubated for 30 minutes at room temperature on the shaker. Repeated the wash step. The microparticles were resuspended by adding 100 μl of Wash Buffer to each well. The plate was incubated for 2 minutes on the shaker and read within 90 minutes using Magpix® multiplex machine. Levels of biomarkers for Parkinson's and Alzheimer's disease were estimated using Magpix® multiplex machine.\n(§3) For Alzheimer's disease the percent modulation in each sample was determined as follows: […]"}, "b-NGF": {"system": "b-NGF", "test": "Alzheimer's biomarker multiplex analysis, scopolamine-damaged SH-SY5Y", "type": "cell-based, human", "details": "Scopolamine (4 mM)", "method": "as §1, §2, §3"}, "RAGE": {"system": "RAGE", "test": "Alzheimer's biomarker multiplex analysis, scopolamine-damaged SH-SY5Y", "type": "cell-based, human", "details": "Scopolamine (4 mM)", "method": "as §1, §2, §3"}, "[1]": {"system": "Cerebral Cortex and Hippocampus", "test": "Brain histopathology (H&E), scopolamine induced dementia", "type": "in vivo, Mus musculus (Swiss Albino)", "method": "Mouse brains were collected after humane sacrifice and fixed in 10% neutral buffered formalin. Then, the brain tissue was trimmed, processed and embedded in paraffin. 5 Micron sections were prepared in slide as a specimen for hematoxylin-eosin (H&E) staining. The hippocampal lesions were assessed microscopically at 100× magnification.\nDetailed histological investigation was performed H&E stained brain tissues. Scoring was given according to the neuronal damage. […] The grading criteria for Histopathology score was: Normal or no injury—0; Rare neuronal injury (<5 clusters)—1; Occasional neuronal injury (5-15 clusters)—2; Frequent neuronal injury (>15 clusters)—3; Diffused neuronal injury-4."}, "[2]": {"details": "G4: 0.5 mg/kg i.v. qdx14, score 0 normal to 4 diffused neuronal injury"}, "[3]": {"details": "G5: 0.25 mg/kg i.v. qdx14, score 0 normal to 4 diffused neuronal injury"}, "[4]": {"details": "G6: 0.125 mg/kg i.v. qdx14, score 0 normal to 4 diffused neuronal injury"}}}
{"molecule": "B1", "values": [{"measurement": "% Apoptotic cells (SubG0/G1)", "setting": "SH-SY5Y neuronal cells; 0.001 μg/mL", "result": 2.7, "unit": "%"}, {"measurement": "% Decrease in Apoptotic cells (wrt MPP + iodide)", "setting": "SH-SY5Y neuronal cells; 0.001 μg/mL", "result": 18.8, "unit": "%"}, {"measurement": "% Apoptotic cells (SubG0/G1)", "setting": "SH-SY5Y neuronal cells; 0.01 μg/mL", "result": 2.2, "unit": "%"}, {"measurement": "% Decrease in Apoptotic cells (wrt MPP + iodide)", "setting": "SH-SY5Y neuronal cells; 0.01 μg/mL", "result": 33.5, "unit": "%"}, {"measurement": "% Apoptotic cells (SubG0/G1)", "setting": "SH-SY5Y neuronal cells; 0.05 μg/mL", "result": 2.4, "unit": "%"}, {"measurement": "% Decrease in Apoptotic cells (wrt MPP + iodide)", "setting": "SH-SY5Y neuronal cells; 0.05 μg/mL", "result": 29.9, "unit": "%"}, {"measurement": "% Apoptotic cells (SubG0/G1)", "setting": "SH-SY5Y neuronal cells; 0.1 μg/mL", "result": 2.4, "unit": "%"}, {"measurement": "% Decrease in Apoptotic cells (wrt MPP + iodide)", "setting": "SH-SY5Y neuronal cells; 0.1 μg/mL", "result": 27.7, "unit": "%"}, {"measurement": "% Apoptotic cells (SubG0/G1)", "setting": "SH-SY5Y neuronal cells; 1 μg/mL", "result": 2.2, "unit": "%"}, {"measurement": "% Decrease in Apoptotic cells (wrt MPP + iodide)", "setting": "SH-SY5Y neuronal cells; 1 μg/mL", "result": 35, "unit": "%"}, {"measurement": "% Change of Biomarkers markers (wrt Control) MPO", "setting": "MPO; 0.01 μg/mL", "result": 1.7, "unit": "%"}, {"measurement": "% Change of Biomarkers markers (wrt Control) MPO", "setting": "MPO; 0.1 μg/mL", "result": "−64", "unit": "%"}, {"measurement": "% Change of Biomarkers markers (wrt Control) MPO", "setting": "MPO; 1 μg/mL", "result": "−45.9", "unit": "%"}, {"measurement": "% Change of Biomarkers markers (wrt Control) MPO", "setting": "MPO; 10 μg/mL", "result": 0, "unit": "%"}, {"measurement": "% Change of Biomarkers markers (wrt Control) MPO", "setting": "MPO; 25 μg/mL", "result": 0, "unit": "%"}, {"measurement": "% Change of Biomarkers markers (wrt Control) b-NGF", "setting": "b-NGF; 0.01 μg/mL", "result": 0, "unit": "%"}, {"measurement": "% Change of Biomarkers markers (wrt Control) b-NGF", "setting": "b-NGF; 0.1 μg/mL", "result": 0, "unit": "%"}, {"measurement": "% Change of Biomarkers markers (wrt Control) b-NGF", "setting": "b-NGF; 1 μg/mL", "result": "−9", "unit": "%"}, {"measurement": "% Change of Biomarkers markers (wrt Control) b-NGF", "setting": "b-NGF; 10 μg/mL", "result": 41.1, "unit": "%"}, {"measurement": "% Change of Biomarkers markers (wrt Control) b-NGF", "setting": "b-NGF; 25 μg/mL", "result": 88.9, "unit": "%"}, {"measurement": "% Change of Biomarkers markers (wrt Control) RAGE", "setting": "RAGE; 0.01 μg/mL", "result": "−19.3", "unit": "%"}, {"measurement": "% Change of Biomarkers markers (wrt Control) RAGE", "setting": "RAGE; 0.1 μg/mL", "result": 0, "unit": "%"}, {"measurement": "% Change of Biomarkers markers (wrt Control) RAGE", "setting": "RAGE; 1 μg/mL", "result": "−19.3", "unit": "%"}, {"measurement": "% Change of Biomarkers markers (wrt Control) RAGE", "setting": "RAGE; 10 μg/mL", "result": 16.3, "unit": "%"}, {"measurement": "% Change of Biomarkers markers (wrt Control) RAGE", "setting": "RAGE; 25 μg/mL", "result": "−3", "unit": "%"}, {"measurement": "Histopathology (Mean score) Cerebral Cortex Cortex", "setting": "[1]; [2]", "result": 0}, {"measurement": "Histopathology (Mean score) Cerebral Cortex Meninges", "setting": "[1]; [2]", "result": 0}, {"measurement": "Histopathology (Mean score) Hippocampus CA1", "setting": "[1]; [2]", "result": 0}, {"measurement": "Histopathology (Mean score) Hippocampus CA3", "setting": "[1]; [2]", "result": 0.67}, {"measurement": "Histopathology (Mean score) Hippocampus DG", "setting": "[1]; [2]", "result": 0}, {"measurement": "Histopathology (Mean score) Cerebral Cortex Cortex", "setting": "[1]; [3]", "result": 0}, {"measurement": "Histopathology (Mean score) Cerebral Cortex Meninges", "setting": "[1]; [3]", "result": 0}, {"measurement": "Histopathology (Mean score) Hippocampus CA1", "setting": "[1]; [3]", "result": 0}, {"measurement": "Histopathology (Mean score) Hippocampus CA3", "setting": "[1]; [3]", "result": 0.6}, {"measurement": "Histopathology (Mean score) Hippocampus DG", "setting": "[1]; [3]", "result": 0}, {"measurement": "Histopathology (Mean score) Cerebral Cortex Cortex", "setting": "[1]; [4]", "result": 0}, {"measurement": "Histopathology (Mean score) Cerebral Cortex Meninges", "setting": "[1]; [4]", "result": 0}, {"measurement": "Histopathology (Mean score) Hippocampus CA1", "setting": "[1]; [4]", "result": 0}, {"measurement": "Histopathology (Mean score) Hippocampus CA3", "setting": "[1]; [4]", "result": 1}, {"measurement": "Histopathology (Mean score) Hippocampus DG", "setting": "[1]; [4]", "result": 0}]}
